Measured values reported in US20240299584A1, “NON-CODING RNA PROTECTING AGAINST HEART FAILURE” (MEDIZINISCHE HOCHSCHULE HANNOVER, priority 2019, published 2024).

What was measured:
[1] = test system: apoptotic cardiomyocytes; experiment: TUNEL and cardiac troponin T co-staining of heart sections; assay type: in vivo, mouse; details: transversal heart sections, doxorubicin model; circINSR given as AAV9
Experimental: (§1) In addition to apoptosis, doxorubicin is known to cause cardiomyocyte atrophy^12 (G). Thus, histopathology analyses were performed on transversal heart section.
Cells were fixed with 4% paraformaldehyde for twenty minutes at room temperature and then permeabilized with ice-cold 0.1% Triton-X-100 in PBS for two minutes at room temperature. Next cells were incubated with enzyme labelling solution provided with In Situ cell death detection kit (Roche) for 1 hour at 37° C. For negative staining, enzyme was not added to the labelling solution. Cells were then washed and incubated with Dapi for 15 minutes. To specifically label neonatal rat cardiomyocytes and hipsc-CM, cells were co-stained with cardiac Troponin T (Thermofisher) after Tunel staining. Images were taken with Nikon Eclipse Ti microscope and images were analyzed with NIS Elements. For analysis in each case, ten different images were analyzed from different regions and average value was taken. Similarly, cryosections of heart were also processed for staining. Numerous images covering complete heart section was taken and Tunel positive nuclei were counted in each field. Average value for each heart was calculated.

[2] = test system: cardiomyocytes; experiment: Cardiomyocyte size on wheat germ agglutinin stained heart sections; assay type: in vivo, mouse; details: WGA stained heart sections, doxorubicin model; circINSR given as AAV9
Experimental: as §1
Cryosections of heart were stained with Alexa Fluor 488 labelled wheat germ agglutinin (Invitrogen) and dapi. Images were taken with Nikon Eclipse Ti microscope and images were analyzed with NIS Elements. For each heart 5 to 10 images were randomly taken from different regions of the section and minimum two hundred cells were measured and average value was taken for each heart.

[3] = test system: HL-1 cells; experiment: Annexin V & 7-AAD staining (apoptosis); assay type: cell-based, mouse; details: HL-1 cells treated with doxorubicin 0.25 μM 48 h
Experimental: HL-1 cells were cultured in Claycomb medium together with 10% FBS, norepinephrine, L-Glutamine and pencillin/streptomycin as manufacturer's protocol. 3T3 and RAW264.7 cells were cultured in DMEM with 10% FBS and pencillin/streptomycin. Neonatal rat cardiomyocytes (NRCM) were isolated from one to three-day old rat babies by using the Neonatal Heart Dissociation Kit (Miltenyi). Human iPSC derived cardiomyocytes (hiPSC-cm) were differentiated at the lab of IMTTS. All the cells were treated with 0.25 μM Doxorubicin (Sigma-Aldrich) for 48 hours. circ-Insr siRNA (Eurofins), in vitro circular RNA and overexpression plasmid were transfected with Lipofectamine 2000 (Life Technologies) in OptiMEM medium. NRCM and hipsc-CM were transduced by AAV6 (MOI: 1*10^4) for 72 hours.
FlowCellect Annexin Red kit (Millipore) was used to stain apoptotic cells as per the manufacturer instruction. Briefly, cells were seeded in 12 well plate and next day treated with 0.25 μM Doxorubicin in normal medium with 10% FBS for forty-eight hours. Then cells were trypsinized and harvested and stained with Annexin-V for 15 minutes at 37° C. in 1× assay buffer. Annexin-V stained cells were centrifuged and washed with 1× assay buffer. Next cells were incubated with 7-AAD for 5 minutes and acquired on Guava (Millipore) flow cytometer. Data was analyzed with FLOWJO software.

[4] = test system: HL-1 cells; experiment: mtDNA copy number measurement; assay type: cell-based, mouse; details: doxorubicin 0.25 μM 48 h, circ-Insr by overexpression plasmid
Experimental: Based on the results of the foregoing examples, it was reasoned that circ-Insr could interact with SSBP1. To further confirm the interaction between circ-Insr and SSBP1, siRNA mediated circ-Insr knock-down was applied in HL-1 cells. Next, RNA pulldown was performed with circ-Insr and scramble biotinylated probes. RT-qPCR confirmed that decrease of circ-Insr appeared both in input and circ-Insr pulldown group (FIG. 23A). […] Therefore, we assumed that circ-Insr is a cofactor of SSBP1 resulting in the regulation of mitochondrial function in cardiomyocytes by stabilizing mtDNA. […] Furthermore, mito-damage assay was applied to measure the changes in mitochondrial membrane potential (MMP). […] Next, we co-transfected HL-1 cells with pcDNA-circ-Insr and SSBP1 siRNA and examined cell viability using the WST assay to explore whether SSBP1 participated in the circ-Insr overexpression-mediated therapy of doxorubicin-cardiotoxicity. RT-qPCR indicated SSBP1 siRNA could downregulate endogenous SSBP1 expression (FIG. 23G).
The ratio of mtDNA to genomic DNA was calculated by dividing copies of CYTB with copies of ACTB in each experiment (Li J, Chan M C, Yu Y, Bei Y H, Chen P, Zhou Q L, et al. miR-29b contributes to multiple types of muscle atrophy. Nature communications. 2017; 8). […] Fluorescence was measured during the last step of each cycle using the SYBR channel. […]

[5] = molecular target: T1, SSBP1 (Mus musculus, UniProt Q9CYR0); experiment: RNA pull-down with circINSR probe, Western blotting; assay type: binding; details: Western blot with SSBP1-specific antibodies
T1 construct: biotinylated DNA oligo probes against endogenous or ectopically expressed circ-Insr and linear-Insr; endogenous in cells; host or cells: 3T3 cells
T1 sequence (Q9CYR0 17-152): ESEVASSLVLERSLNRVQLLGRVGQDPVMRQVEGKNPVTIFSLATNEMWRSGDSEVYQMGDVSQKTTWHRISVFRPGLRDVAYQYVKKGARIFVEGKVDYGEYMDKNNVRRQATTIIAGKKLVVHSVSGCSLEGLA
Experimental: Finally, RNA pull-down experiments were performed to identify potential protein interaction partners of circINSR. To do so, a biotin-labelled probe was designed which spans the backsplice junction (FIG. 8A). […] Mass spectrometry analysis of the pull-down lysates yielded a list of potential protein interactors. After applying several filtering parameters (relative MS peptide count >15, relative enrichment over hostgene and control probe log 2FC>2) and cat rapid analysis to calculate the interaction propensity with circINSR, Single-stranded DNA-binding protein 1, SSBP1, was identified as the most probable binding partner of circINSR (FIG. 8B). […] Moreover, co-localisation of circINSR and SSBP1 in Immuno-RNA-FISH staining, further confirmed the interaction between those two.
Cell pellets were lysed in 1× Cell lysis buffer (Cell Signaling) and isolated protein was measured by Bradford (Biorad) for quantification. […] Band intensity was calculated by Image J software.
10^6 cells were washed in ice-cold phosphate-buffered saline, lysed in 500 μl co-IP buffer, and incubated with 3 μg biotinylated DNA oligo probes against endogenous or ectopically expressed circ-Insr and linear-Insr, at room temperature for 2 h. […] The bound proteins in the pull-down materials were analyzed by western blotting and the RNA sample were analysed via qRT-PCR.

B1: circINSR: circRNA formed through backsplicing of the second exon of the insulin receptor gene transcript; overexpressed from plasmid or AAV (nucleic acid, listed as Homo sapiens)
chain: UGUGUCCCGGCAUGGAUAUCCGGAACAACCUCACUAGGUUGCAUGAGCUGGAGAAUUGCUCUGUCAUCGAAGGACACUUGCAGAUACUCUUGAUGUUCAAAACGAGGCCCGAAGAUUUCCGAGACCUCAGUUUCCCCAAACUCAUCAUGAUCACUGAUUACUUGCUGCUCUUCCGGGUCUAUGGGCUCGAGAGCCUGAAGGACCUGUUCCCCAACCUCACGGUCAUCCGGGGAUCACGACUGUUCUUUAACUACGCGCUGGUCAUCUUCGAGAUGGUUCACCUCAAGGAACUCGGCCUCUACAACCUGAUGAACAUCACCCGGGGUUCUGUCCGCAUCGAGAAGAACAAUGAGCUCUGUUACUUGGCCACUAUCGACUGGUCCCGUAUCCUGGAUUCCGUGGAGGAUAAUUACAUCGUGUUGAACAAAGAUGACAACGAGGAGUGUGGAGACAUCUGUCCGGGUACCGCGAAGGGCAAGACCAACUGCCCCGCCACCGUCAUCAACGGGCAGUUUGUCGAACGAUGUUGGACUCAUAGUCACUGCCAGAAAG
modifications: circular RNA; RNA sequence
notes: circRNA formed through backsplicing of the second exon of the insulin receptor gene transcript; overexpressed from plasmid or AAV
For B1, the “apoptotic cardiomyocytes (TUNEL / cTNT)” value [1] was “significantly blunted”, the cardiomyocyte size [2] was “indistinguishable from control mice” and the “apoptotic cells (Annexin V)” value [3] was “significantly lower levels of apoptosis”. For the same molecule, the “mtDNA copy number / mtDNA content” value [4] was “reverse the decrease” and the “interaction of circINSR with SSBP1” value [5] was “confirmed a physical interaction”.
